Patent US8709811B2, “Materials and methods for synthesis of a flavor and aroma volatile in plants” (University of Florida Research Foundation, Inc., priority 2003, dated 2014)
“Also recorded” adds a separate entry of the source.

Assays:
[1] = system: phenylalanine; experiment: Phenylalanine decarboxylase expression in E. coli: phenethylamine production in media containing phenylalanine, GC; type: cell-based; details: grown in the presence of phenylalanine, confirmed by GC-MS
Excerpt: The full-length aromatic amino acid decarboxylase cDNAs were cloned by sequencing putative clones from the TIGR database. Following sequence analysis the full-length coding sequence was obtained by PCR, and cloned into vector pENTR/D-TOPO. The coding region was then cloned into vector pDEST15 containing a GST tag (Invitrogen) by recombination, and transformed into E. coli strain […] (Invitrogen) for inducible protein expression. Production of the recombinant protein was confirmed by protein blotting with anti-GST antibodies. Enzyme activity was determined by growing E. coli strains expressing the aromatic amino acid decarboxylases in media containing 19.4 mM phenylalanine. Volatile compounds were extracted from the cultures using an equal volume of hexanes. Extracts were concentrated and analyzed by gas chromatography on an Agilent DB-5 column on an Agilent 6890N gas chromatograph. Identification of phenethylamine was confirmed by GC-mass spectrometry as described by Schmelz et al. (2001).
The coding regions of the full-length aromatic amino acid decarboxylases were cloned in vector pDEST15 with a GST tag and transformed into E. coli BL21-SI cells for inducible expression. The production of recombinant proteins in E. coli was confirmed by Western blotting with an anti-GST antibody. […] Volatile compounds were extracted from these cultures and analyzed by gas chromatography. […]

[2] = In vitro phenylethanol dehydrogenase activity of E. coli expressed petunia homolog; type: biochemical; details: E. coli expressed protein
Excerpt: FIGS. 14A-14B show the nucleotide (SEQ ID NO: 10) and amino acid sequence (SEQ ID NO: 11) of a petunia homolog of the tomato phenylethanol dehydrogenase.

B1: cLEC73K23: tomato phenylalanine decarboxylase cLEC73K23, SEQ ID NO: 7, encoded by SEQ ID NO: 6 (protein, listed as Lycopersicon esculentum)
chain: MGSLSLEMDFEPSPMTPRSLAAMTPRSLARRRLFPNVDNKKQKMAQPGAGPRKNLELEVMEPALKNDGPSLDTILVNYLDTLTQRVNYHLGYPVNICYDHYATLAPLLQFHLNNCGDPFLQNTVDFHSKDFEVAVLNWFAKLWEIEKDQYWGYVTNGGTEGNLHGILLGRELLPEGILYASKDSHYSVFKAARMYRMDSETINTSVNGEMDYSDLRAKLLQNKDKPAIINVTIGTTFKGAIDDLDVILEILKECGYSQDRFYIHCDAALCGLMTPFINNMISFKKPIGSVTISGHKFLGCPMPCGVQITRKSYINNLSTNVEYIASVDATISGSRNGLTPIFLWYSLSAKGQVGLQKDVKRCLDNAKYLKDRLQQAGISVMLNELSIIVVLERPRDHEFVRRWQLSCVKDMAHVIVMPGITREMLDNFMSELVQQRKVWYQNGKTDPPCVGEDIGAQNCACSYHKIDYICP
Production of phenethylamine by E. coli cultures expressing the decarboxylase [1]: produced a compound with the same retention time as phenethylamine; also recorded: produce phenethylamine

B2: cLEC75E21: tomato phenylalanine decarboxylase cLEC75E21, SEQ ID NO: 5, encoded by SEQ ID NO: 4 (protein, listed as Lycopersicon esculentum)
chain: MGSLSFEKDFEPSAITPRGLAPPGLIVNGDFGEMMRLKVSSTPTTPRKNLNLSVTEPGKNDGPSLDCTLMNYIDTLTQRINYHIGYPVNICYEHYANLAPLLQFHLNNCGDPFLQNTVDFHSKDFEVAVLNWFADLWEIERDQYWGYVTNGGTEGNLHGILVGRELFPDGILYASKDSHYSVAKAAMMYRMDFENINASINGEIDYSDLKVKLLQNKGKPAIINVTIGTTFKGAVDDLDVILQILEECGYTRDQFYIHCDAALNGLIIPFIKNMITFKKPIGSVTISGHKFLGCPMPCGVQITRKSYINNLSRRVEYIASVDATISGSRNGLTPIFLWYSISAKGQIGFQKDVKRCFDNAKYLKDRLQQAGISVMLNELSIIVVLERPRDHEFVRRWQLSCVRDMAHVIVMPGITRETLDGFINDLLQQRKKWYQDGRISPPCVANDIGAQNCACSYHKIDYIIA
Production of phenethylamine by E. coli cultures expressing the decarboxylase [1]: produced a compound with the same retention time as phenethylamine; also recorded: produce phenethylamine

B3: petunia homolog of the tomato phenylethanol dehydrogenase: petunia 2-phenylethanol dehydrogenase, SEQ ID NO: 11, encoded by SEQ ID NO: 10 (protein, listed as Lycopersicon esculentum)
chain: MSSVAATKTVCVTGASGYIASWLVNFLLQRGYTVKASVRDPNDPKKTQHLISLGGAKERLHLFKANLLEEGSFDAVVDGCEGVFHTASPFYYSVTDPQAELLDPAVKGTLNLLGSCAKAPSVKRVVLTSSIAAVAYSGEPRTPEVVVDESWWTSPDYCREKQLWYVLSKTLAEDAAWKFVKEKGIDMVAINPAMVIGPLLQPTLNTSSAAVLNLVNGAETYPNATFGWVNVKDVANAHILAFENPSANGRYLMVERVAHYSDILKILRELYPTMRLPEKCADDNPLMQNYQVSKERAKSLGVEFTPLEESIKETVESLKEKKFFGGSSAM
Phenylethanol dehydrogenase activity in vitro [2]: exhibits phenylethanol dehydrogenase activity
